# Reference: patent publication US20050074401A1
# Tests used:
# [1] = target: recombinant ED-B domain of fibronectin, conjugated to Sepharose (UniProt P02751); test: percent of 125I-labelled antibody bound to ED-B Sepharose column, before injection
# [2] = target: recombinant ED-B domain of fibronectin, conjugated to Sepharose (UniProt P02751); test: ED-B Sepharose column on plasma 3 h after i.v. injection of 125I-antibody, normalised to value before injection
# [3] = target: recombinant ED-B domain of fibronectin, conjugated to Sepharose (UniProt P02751); test: ED-B Sepharose column on plasma 6 h after i.v. injection of 125I-antibody, normalised to value before injection
# [4] = target: recombinant ED-B domain of fibronectin, conjugated to Sepharose (UniProt P02751); test: ED-B Sepharose column on plasma 24 h after i.v. injection of 125I-antibody, normalised to value before injection
# [5] = target: recombinant ED-B domain of fibronectin, conjugated to Sepharose (UniProt P02751); test: ED-B Sepharose column on plasma 48 h after i.v. injection of 125I-antibody, normalised to value before injection
# [6] = target: recombinant ED-B domain of fibronectin, conjugated to Sepharose (UniProt P02751); test: ED-B Sepharose column on plasma 72 h after i.v. injection of 125I-antibody, normalised to value before injection
# [7] = target: recombinant ED-B domain of fibronectin, conjugated to Sepharose (UniProt P02751); test: ED-B Sepharose column on plasma 144 h after i.v. injection of 125I-antibody, normalised to value before injection
# [8] = target: recombinant ED-B domain of fibronectin, conjugated to Sepharose (UniProt P02751); test: immunoreactivity of the labelled product (percent bound to ED-B Sepharose column, assay as in P-0168)
# [9] = target: recombinant ED-B domain of fibronectin, conjugated to Sepharose (UniProt P02751); test: immunoreactivity of the labelled product, Iodogen preparation (percent bound to ED-B Sepharose column, assay as in P-0168)
# [10] = target: recombinant ED-B domain of fibronectin, conjugated to Sepharose (UniProt P02751); test: immunoreactivity of the labelled product, chloramine-T preparation (percent bound to ED-B Sepharose column, assay as in P-0168)
# recombinant ED-B domain of fibronectin, conjugated to Sepharose, sequence (P02751 1266-1356 limits assumed): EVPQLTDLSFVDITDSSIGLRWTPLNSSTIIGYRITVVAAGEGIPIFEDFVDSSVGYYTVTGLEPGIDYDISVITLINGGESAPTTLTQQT
# radioiodinated (125I) L19-SIP, sequence (VH): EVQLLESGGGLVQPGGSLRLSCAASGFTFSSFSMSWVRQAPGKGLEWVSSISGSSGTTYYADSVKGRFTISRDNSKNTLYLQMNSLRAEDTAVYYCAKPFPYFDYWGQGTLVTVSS
# radioiodinated (125I) L19-SIP, sequence (VL): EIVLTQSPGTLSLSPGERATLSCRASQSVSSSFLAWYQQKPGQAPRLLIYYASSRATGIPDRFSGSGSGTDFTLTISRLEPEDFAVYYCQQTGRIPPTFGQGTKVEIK
# radioiodinated (125I) scFv(L19)2, sequence (VH): as the sequence (VH) above
# radioiodinated (125I) scFv(L19)2, sequence (VL): as the sequence (VL) above
# radioiodinated (125I) L19-IgG1, sequence (VH): as the sequence (VH) above
# radioiodinated (125I) L19-IgG1, sequence (VL): as the sequence (VL) above
# I-131-L19-SIP, sequence (VH): as the sequence (VH) above
# I-131-L19-SIP, sequence (VL): as the sequence (VL) above
# In-111-MX-DTPA-Maleimide-S(Cys)-L19-SIP-R (R=reduced), sequence (VH): as the sequence (VH) above
# In-111-MX-DTPA-Maleimide-S(Cys)-L19-SIP-R (R=reduced), sequence (VL): as the sequence (VL) above
# In-111-MX-DTPA-ε-HN(Lys)-L19-SIP, sequence (VH): as the sequence (VH) above
# In-111-MX-DTPA-ε-HN(Lys)-L19-SIP, sequence (VL): as the sequence (VL) above
# In-111-DOTA-C-Benzyl-p-NCS-ε-HN(Lys)-L19-SIP, sequence (VH): as the sequence (VH) above
# In-111-DOTA-C-Benzyl-p-NCS-ε-HN(Lys)-L19-SIP, sequence (VL): as the sequence (VL) above
# I-124-L19-SIP, sequence (VH): as the sequence (VH) above
# I-124-L19-SIP, sequence (VL): as the sequence (VL) above
# (3-(4-hydroxy-3-[131I]iodo-phenyl)-propionate)-L19-SIP, sequence (VH): as the sequence (VH) above
# (3-(4-hydroxy-3-[131I]iodo-phenyl)-propionate)-L19-SIP, sequence (VL): as the sequence (VL) above
# I-123-L19-SIP, sequence (VH): as the sequence (VH) above
# I-123-L19-SIP, sequence (VL): as the sequence (VL) above
# Re-188-L19-SIP, sequence (VH): as the sequence (VH) above
# Re-188-L19-SIP, sequence (VL): as the sequence (VL) above
# Tc-99m-L19-SIP, sequence (VH): as the sequence (VH) above
# Tc-99m-L19-SIP, sequence (VL): as the sequence (VL) above
# Y-88-MX-DTPA-ε-HN(Lys)-L19-SIP, sequence (VH): as the sequence (VH) above
# Y-88-MX-DTPA-ε-HN(Lys)-L19-SIP, sequence (VL): as the sequence (VL) above
# Tc-99m-MAG2-ε-HN(Lys)-L19-SIP, sequence (VH): as the sequence (VH) above
# Tc-99m-MAG2-ε-HN(Lys)-L19-SIP, sequence (VL): as the sequence (VL) above
# Lu-177-DOTA-C-Benzyl-p-NCS-ε-HN(Lys)-L19-SIP, sequence (VH): as the sequence (VH) above
# Lu-177-DOTA-C-Benzyl-p-NCS-ε-HN(Lys)-L19-SIP, sequence (VL): as the sequence (VL) above
substance,measurement,setting,value
radioiodinated (125I) scFv(L19)2,Immunoreactivity,[1],> 90%
same,"Immunoreactivity (I), % of the value before i.v. injection",[2],36%
same,"Immunoreactivity (I), % of the value before i.v. injection",[3],32%
same,"Immunoreactivity (I), % of the value before i.v. injection",[4],27%
same,"Immunoreactivity (I), % of the value before i.v. injection",[5],14%
same,"Immunoreactivity (I), % of the value before i.v. injection",[6],9%
same,"Immunoreactivity (I), % of the value before i.v. injection",[7],4%
In-111-MX-DTPA-Maleimide-S(Cys)-L19-SIP-R (R=reduced) (from UniProt P01854 319-426) (antibody),Immunoreactivity,[8],88.5%
Tc-99m-L19-SIP (from UniProt P01854 319-426) (antibody),Immunoreactivity,[8],91.4%
I-123-L19-SIP (from UniProt P01854 319-426) (antibody),Immunoreactivity,[8],84%
Re-188-L19-SIP (from UniProt P01854 319-426) (antibody),Immunoreactivity,[8],91.7%
Lu-177-DOTA-C-Benzyl-p-NCS-ε-HN(Lys)-L19-SIP (from UniProt P01854 319-426) (antibody),Immunoreactivity,[8],73.4%
I-124-L19-SIP (from UniProt P01854 319-426) (antibody),Immunoreactivity,[8],86%
(3-(4-hydroxy-3-[131I]iodo-phenyl)-propionate)-L19-SIP (from UniProt P01854 319-426) (antibody),Immunoreactivity,[8],69%
I-131-L19-SIP (from UniProt P01854 319-426) (antibody),Immunoreactivity,[9],78%
same,Immunoreactivity,[10],76%
radioiodinated (125I) L19-IgG1 (from UniProt P01857 1-330) (antibody),Immunoreactivity,[1],> 90%
same,"Immunoreactivity (I), % of the value before i.v. injection",[2],100%
same,"Immunoreactivity (I), % of the value before i.v. injection",[3],100%
same,"Immunoreactivity (I), % of the value before i.v. injection",[4],95%
same,"Immunoreactivity (I), % of the value before i.v. injection",[5],100%
same,"Immunoreactivity (I), % of the value before i.v. injection",[6],100%
same,"Immunoreactivity (I), % of the value before i.v. injection",[7],95%
In-111-DOTA-C-Benzyl-p-NCS-ε-HN(Lys)-L19-SIP (from UniProt P01854 319-426) (antibody),Immunoreactivity,[8],75.1%
Y-88-MX-DTPA-ε-HN(Lys)-L19-SIP (from UniProt P01854 319-426) (antibody),Immunoreactivity,[8],70.5%
In-111-MX-DTPA-ε-HN(Lys)-L19-SIP (from UniProt P01854 319-426) (antibody),Immunoreactivity,[8],77.5%
Tc-99m-MAG2-ε-HN(Lys)-L19-SIP (from UniProt P01854 319-426) (antibody),Immunoreactivity,[8],81.1%
radioiodinated (125I) L19-SIP (from UniProt P01854 319-426) (antibody),Immunoreactivity,[1],> 90%
same,"Immunoreactivity (I), % of the value before i.v. injection",[2],100%
same,"Immunoreactivity (I), % of the value before i.v. injection",[3],100%
same,"Immunoreactivity (I), % of the value before i.v. injection",[4],100%
same,"Immunoreactivity (I), % of the value before i.v. injection",[5],95%
same,"Immunoreactivity (I), % of the value before i.v. injection",[6],100%
same,"Immunoreactivity (I), % of the value before i.v. injection",[7],95%
